Measured values as given in patent publication US20240116985A1 (published 2024).
Starred links: 1 amine or outer side, 2 acyl side, 3 side chain; linkers in the order of their positions; H or OH if unused. Positions of bridges follow the written chain, without caps; N, C: chain ends. Non-standard residues stand in square brackets, D forms with d. Primed or numbered codes have the meaning given here. (CH2CMe2CO2H)TriAzDap = (S)-3-(1-(2-amino-2-carboxyethyl)-1H-1,2,3-triazol-4-yl)-2,2-dimethylpropanoic acid, CC(C)(Cc1cn(C[C@H](N[*:1])C(=O)[*:2])nn1)C(=O)[*:3]; (CMe2CO2H)TriAzDab = (S)-2-amino-4-(4-(2-carboxypropan-2-yl)-1H-1,2,3-triazol-1-yl)butanoic acid, CC(C)(C(=O)[*:3])c1cn(CC[C@H](N[*:1])C(=O)[*:2])nn1; (CMe2CO2H)TriAzDap = (S)-2-amino-3-(4-(2-carboxypropan-2-yl)-1H-1,2,3-triazol-1-yl)propanoic acid, CC(C)(C(=O)[*:3])c1cn(C[C@H](N[*:1])C(=O)[*:2])nn1; PyrS2″ = (S)-3-amino-1-((pent-4-en-1-yloxy)carbonyl)pyrrolidine-3-carboxylic acid (stapling residue), C=CCCCOC(=O)N1CC[C@@](N[*:1])(C(=O)[*:2])C1; (2COOHPh)TriAzDap = (S)-2-(1-(2-amino-2-carboxyethyl)-1H-1,2,3-triazol-4-yl)benzoic acid, O=C([C@H](Cn1cc(-c2ccccc2C(=O)[*:3])nn1)N[*:1])[*:2]; (CH2CH2CO2H)TriAzDap = (S)-2-amino-3-(4-(2-carboxyethyl)-1H-1,2,3-triazol-1-yl)propanoic acid, O=C([C@H](Cn1cc(CCC(=O)[*:3])nn1)N[*:1])[*:2]; (CH2CO2H)TriAzDab = (S)-2-amino-4-(4-(carboxymethyl)-1H-1,2,3-triazol-1-yl)butanoic acid, O=C([C@H](CCn1cc(CC(=O)[*:3])nn1)N[*:1])[*:2]; (CH2CO2H)TriAzDap = (S)-2-amino-3-(4-(carboxymethyl)-1H-1,2,3-triazol-1-yl)propanoic acid, O=C([C@H](Cn1cc(CC(=O)[*:3])nn1)N[*:1])[*:2]; B5(4) = 2,2-bis(4-pentenyl)glycine = 2-amino-2-(pent-4-en-1-yl)hept-6-enoic acid (stitching residue), C=CCCCC(CCCC=C)(N[*:1])C(=O)[*:2]; (2COOH4NH2Ph)Dap = (S)-5-amino-2-((2-amino-2-carboxyethyl)amino)benzoic acid, Nc1ccc(NC[C@H](N[*:1])C(=O)[*:2])c(C(=O)[*:3])c1; (2COOHPh)TriAzDab = O=C([C@H](CCn1cc(-c2ccccc2C(=O)[*:3])nn1)N[*:1])[*:2]; Phe(3-COOH) = N[C@@H](Cc1cccc(C(=O)O)c1)C(=O)O; 2F3MeF = Cc1cccc(C[C@H](N[*:1])C(=O)[*:2])c1F; Phe(2-CF3) = N[C@@H](Cc1ccccc1C(F)(F)F)C(=O)O; Bta = N[C@@H](Cc1csc2ccccc12)C(=O)O; αAllylPro = C=CC[C@@]1(C(=O)O)CCCN1; tBuAla = CC(C)(C)C[C@H](N)C(=O)O; 3Thi = N[C@@H](Cc1ccsc1)C(=O)O; PyrS2(4) = not defined here

T1: Bcat-Halo (UniProt P35222 1-781)
T1 sequence (looked up): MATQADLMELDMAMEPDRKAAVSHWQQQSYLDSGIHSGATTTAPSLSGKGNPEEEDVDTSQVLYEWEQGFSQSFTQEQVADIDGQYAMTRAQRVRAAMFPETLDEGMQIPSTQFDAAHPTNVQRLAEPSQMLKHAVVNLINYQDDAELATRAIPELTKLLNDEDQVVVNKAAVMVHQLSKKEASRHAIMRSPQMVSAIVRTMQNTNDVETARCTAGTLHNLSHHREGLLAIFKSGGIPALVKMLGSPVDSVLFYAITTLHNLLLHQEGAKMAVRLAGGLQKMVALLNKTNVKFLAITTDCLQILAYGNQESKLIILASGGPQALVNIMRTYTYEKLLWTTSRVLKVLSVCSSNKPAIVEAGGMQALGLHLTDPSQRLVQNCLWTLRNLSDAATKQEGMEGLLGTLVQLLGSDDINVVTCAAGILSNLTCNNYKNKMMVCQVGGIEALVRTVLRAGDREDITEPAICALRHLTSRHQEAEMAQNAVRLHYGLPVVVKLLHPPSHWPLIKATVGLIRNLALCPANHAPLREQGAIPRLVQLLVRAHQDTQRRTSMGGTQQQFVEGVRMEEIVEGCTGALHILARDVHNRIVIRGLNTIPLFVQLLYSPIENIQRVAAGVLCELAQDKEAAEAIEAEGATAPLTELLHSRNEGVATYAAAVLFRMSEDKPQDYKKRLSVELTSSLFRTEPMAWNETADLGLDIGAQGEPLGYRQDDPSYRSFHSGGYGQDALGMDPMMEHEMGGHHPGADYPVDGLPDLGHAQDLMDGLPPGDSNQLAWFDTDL


Molecular target: T1, Bcat-Halo
Test: cell-based or functional assay

Binder	NanoBRET Abs IC50 [µM]
Ac-[αAllylPro]D[tBuAla][B5(4)]D[(CH2CO2H)TriAzDab]AAFL[PyrS2″][3Thi][Bta]Q-NH2 (staple 1-4, 4-11) [I-2078]	11.7
Ac-[αAllylPro]D[tBuAla][B5(4)]D[(CMe2CO2H)TriAzDab]AAFL[PyrS2″][3Thi][Bta]Q-NH2 (staple 1-4, 4-11) [I-2079]	15.1
Ac-[αAllylPro]D[tBuAla][B5(4)]D[(2COOHPh)TriAzDab]AAFL[PyrS2″][3Thi][Bta]Q-NH2 (staple 1-4, 4-11; not fully specified) [I-2080]	28.8
Ac-[αAllylPro]D[tBuAla][B5(4)]D[(2COOHPh)TriAzDab]AAFL[PyrS2(4)][3Thi][Bta]Q-NH2 (staple 1-4, 4-11; not fully specified; reading uncertain) [I-2081]	11.6
Ac-[αAllylPro]D[tBuAla][B5(4)]D[(CH2CH2CO2H)TriAzDap]AAFL[PyrS2″][3Thi][Bta]Q-NH2 (staple 1-4, 4-11) [I-2082]	7.7
Ac-[αAllylPro]D[tBuAla][B5(4)]D[(CH2CMe2CO2H)TriAzDap]AAFL[PyrS2″][3Thi][Bta]Q-NH2 (staple 1-4, 4-11) [I-2083]	3.7
Ac-[αAllylPro]D[tBuAla][B5(4)]D[(CH2CO2H)TriAzDap]AAFL[PyrS2″][3Thi][Bta]Q-NH2 (staple 1-4, 4-11) [I-2084]	9.2
Ac-[αAllylPro]D[tBuAla][B5(4)]D[(CMe2CO2H)TriAzDap]AAFL[PyrS2″][3Thi][Bta]Q-NH2 (staple 1-4, 4-11) [I-2085]	6.2
Ac-[αAllylPro]D[tBuAla][B5(4)]D[(2COOHPh)TriAzDap]AAFL[PyrS2″][3Thi][Bta]Q-NH2 (staple 1-4, 4-11) [I-2086]	16.4
Ac-[αAllylPro]D[tBuAla][B5(4)]D[(2COOH4NH2Ph)Dap]AAFL[PyrS2″][3Thi][Bta]Q-NH2 (staple 1-4, 4-11) [I-2087]	6.5
Ac-[αAllylPro]D[tBuAla][B5(4)]D[Phe(3-COOH)]AAFL[PyrS2″][3Thi][Bta][dQ]-NH2 (staple 1-4, 4-11) [I-2088]	4.4
Ac-[αAllylPro]D[tBuAla][B5(4)]D[Phe(3-COOH)]AAFL[PyrS2(4)][2F3MeF][Bta][dQ]-NH2 (staple 1-4, 4-11; reading uncertain) [I-2089]	2.9
Ac-[αAllylPro]D[tBuAla][B5(4)]D[Phe(3-COOH)]AAFL[PyrS2(4)][3Thi][Bta][dA]-NH2 (staple 1-4, 4-11; reading uncertain) [I-2090]	5.9
Ac-[αAllylPro]D[tBuAla][B5(4)]D[Phe(3-COOH)]AAFL[PyrS2″][Phe(2-CF3)][Bta][dA]-NH2 (staple 1-4, 4-11) [I-2091]	6.2
Ac-[αAllylPro]D[tBuAla][B5(4)]D[Phe(3-COOH)]AAFF[PyrS2″][3Thi][Bta][dQ]-NH2 (staple 1-4, 4-11) [I-2092]	4.4
Ac-[αAllylPro]D[tBuAla][B5(4)]D[Phe(3-COOH)]AAFF[PyrS2″][Phe(2-CF3)][Bta][dQ]-NH2 (staple 1-4, 4-11) [I-2093]	5
